{"source": "patent US20170121398A1", "about": "(PROTHENA BIOSCIENCES, published 2017)", "binders": {"B1": {"name": "mouse antibody 6C1 (antibody, IgG1, V domains shown)", "VH": "EVQLVESGGGLVQPGGSLKLSCAASGFTFSNYYMSWVRQTPEKRLEWVAYISIDGNNIYHPDSVKGRFTISRDNAKNTLYLQMSSLKSEDTAMYYCARDSDYGYFDVWGTGTTVTVSS", "VL": "DVLMTQTPLSLPVSLGDQASISCRSSQSIVHSNGNTYLEWYLQKRGQSPKLLIYKVSKRFSGVPDRFSGSGSGTDFILKISRVEAEDLGVYYCFQGSHVPLTFGGGTKLELK", "notes": "also called m6C1; mis-TTR mAb 6C1"}}, "molecular_target": "pH4.0-treated TTR (human, UniProt P02766 21-147)", "test": "ELISA, pH4-treated TTR-His captured on an anti-His coat, anti-mouse HRP detection, OD450", "data": [{"binder": "B1", "values": [{"measurement": "EC50 (read off the curve)", "value": "~0.2", "unit": "µg/mL"}]}]}
